Test results: paper PMC6299665 (Journal for Immunotherapy of Cancer, 2018)

Columns and labels:
[1] = molecular target: T1, human OX40, histidine-tagged recombinant (human, UniProt P43489 29-214); assay: SPR
T1 chain: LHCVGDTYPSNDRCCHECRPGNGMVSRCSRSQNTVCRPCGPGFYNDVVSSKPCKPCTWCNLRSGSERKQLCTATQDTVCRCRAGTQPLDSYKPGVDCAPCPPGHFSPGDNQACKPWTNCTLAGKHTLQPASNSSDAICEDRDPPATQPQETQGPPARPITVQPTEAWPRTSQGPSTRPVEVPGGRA

[2] = molecular target: T2, human OX40, histidine-tagged recombinant (human, UniProt P43489 29-214); assay: SPR; BioRAD ProteOn XPR36; His-tagged targets immobilised on Ni-activated HTG chip; analyte in PBS/Tween (0.005%) pH 7.0, 3 min injection, 5 min dissociation, flow 80-100 μl/min; details: both partners purified
T2 construct: OX40, human, recombinant; also called hOX40-His; source: bought: Acro Biosystems (SPR); for the ELISAs the vendor is one of Jackson ImmunoResearch, Sino Biological, Acro Biosystems, R&D Systems
T2 sequence (looked up): T1 chain

- koff [1]: 0.00069 s⁻¹
- Kd [2]: 9.28 nM
B1: recombinant human OX40L-Fc (Fc fusion, UniProt P23510 51-183, looked up)
chain: QVSHRYPRIQSIKVQFTEYKKEKGFILTSQKEDEIMKVQNNSVIINCDGFYLISLKGYFSQEVNISLHYQKDEEPLFQLKKVRSVNSLMVASLTYKDKVYLNVTTDNTSLDDFHVNGGELILIHQNPGEFCVL
notes: OX40L, human, recombinant Fc fusion; The background says in general that in OX40L-Fc proteins the Fc precedes OX40L; also called hOX40L-Fc; Fc-OX40L; source: bought: Acro Biosystems
